T1: IL-33ox (Homo sapiens, UniProt O95760)
T1 chain: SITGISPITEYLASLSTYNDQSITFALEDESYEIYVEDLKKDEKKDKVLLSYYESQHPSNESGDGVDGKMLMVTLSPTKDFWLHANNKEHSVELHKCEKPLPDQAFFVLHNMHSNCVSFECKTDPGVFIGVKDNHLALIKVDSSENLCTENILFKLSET

T2: IL-33red (Homo sapiens, UniProt O95760)
T2 chain: T1 chain

T3: endogenous IL-33^red derived from human lung tissue (mixture of full-length and N-terminally truncated forms) (human (endogenous in lung tissue), UniProt O95760 1-270)
T3 sequence (looked up): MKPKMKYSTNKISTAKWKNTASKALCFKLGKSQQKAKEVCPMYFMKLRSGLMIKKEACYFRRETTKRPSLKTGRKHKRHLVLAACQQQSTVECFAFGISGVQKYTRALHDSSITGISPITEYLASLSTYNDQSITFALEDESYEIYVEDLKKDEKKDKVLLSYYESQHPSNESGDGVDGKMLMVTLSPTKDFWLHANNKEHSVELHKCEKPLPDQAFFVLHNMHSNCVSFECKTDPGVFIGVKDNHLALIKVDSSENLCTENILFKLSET

B1: tozorakimab Fab (antibody, V domains shown)
VH: EVQLLESGGGLVQPGGSLRLSCAASGFTFSSYAMSWVRQAPGKGLEWVSGISAIDQSTYYADSVKGRFTISRDNSKNTLYLQMNSLRAEDTAVYYCARQKFMQLWGGGLRYPFGYWGQGTMVTVSS
VL: SYVLTQPPSVSVSPGQTASITCSGEGMGDKYAAWYQQKPGQSPVLVIYRDTKRPSGIPERFSGSNSGNTATLTISGTQAMDEADYYCGVIQDNTGVFGGGTKLTVLG
modifications: oxidized IL-33
B2: tozorakimab (antibody, V domains shown)
VH: B1 VH
VL: B1 VL
B3: reduced interleukin-33 (IL-33^red), recombinant human, residues 112–270 (ligand, UniProt O95760 112-270, looked up)
chain: T1 chain
notes: interleukin-33, human, residues 112–270, reduced form (free cysteines); Other assays used a biotinylated Avi-tag histidine-tag form or an N-terminally tagged form; also called wild-type IL-33; source: recombinant
B4: soluble serum stimulated 2 (sST2), the truncated, soluble form of ST2 (receptor, UniProt Q01638-2 19-328, looked up)
chain: KFSKQSWGLENEALIVRCPRQGKPSYTVDWYYSQTNKSIPTQERNRVFASGQLLKFLPAAVADSGIYTCIVRSPTFNRTGYANVTIYKKQSDCNVPDYLMYSTVSGSEKNSKIYCPTIDLYNWTAPLEWFKNCQALQGSRYRAHKSFLVIDNVMTEDAGDYTCKFIHNENGANYSVTATRSFTVKDEQGFSLFPVIGAPAQNEIKEVEIGKNANLTCSACFGKGTQFLAAVLWQLNGTKITDFGEPRIQQEEGQNQSFSNGLACLDMVLRIADVKEEDLLLQYDCLALNLHGLRRHTVRLSRKNPSKECF

Columns and labels:
IL-33ox = target: T1, IL-33ox; experiment: SPR
IL-33red = target: T2, IL-33red; experiment: KinExA
[1] = target: B4; experiment: KinExA (kinetic exclusion assay); equilibrium in free solution; IL-33^red against fixed sST2 (30 pM and 2.0 pM datasets), 1:1 binding model fitted to both datasets simultaneously; conditions: both partners purified
[2] = target: B4; experiment: KinExA (kinetic exclusion assay); measurement of the association rate constant (ka) of IL-33 interacting with sST2 in free solution; conditions: both partners purified
[3] = target: B3; experiment: cell-based or functional assay
[4] = target: T3, endogenous IL-33^red derived from human …; experiment: cell-based or functional assay

Binder: B1
Kd (IL-33ox): 41000 pM

Binder: B2
Kd (IL-33red): 0.03 pM

Binder: B3
Kd [1]: 0.09 pM | kon [2]: 1.5e+08 M⁻¹ s⁻¹

Binder: B4
IC50 of inhibition of IL-8 release from HUVECs driven by recombinant human IL-33^red (residues 112–270) [3]: 424 pM | IC50 of inhibition of IL-8 release from HUVECs treated with human lung lysate (endogenous IL-33^red) [4]: 32 pM

Source: publication PMC10276851, “Tozorakimab (MEDI3506): an anti-IL-33 antibody that inhibits IL-33 signalling via ST2 and RAGE/EGFR to reduce inflammation and epithelial dysfunction” (Scientific Reports, 2023)
